Assay results: patent US20170304566A1 (Ablynx, published 2017)

Molecular target: F protein (fusion glycoprotein) of hRSV, Memphis 37 strain (human respiratory syncytial virus, …)
Experiment: cell-based or functional assay

B1: SEQ ID NO: 71 (RSV434), trivalent polypeptide consisting of three anti-hRSV immunoglobulin single variable domains (VHH)
chain: DVQLVESGGGLVQAGGSLSISCAASGGSLSNYVLGWFRQAPGKEREFVAAINWRGDITIGPPNVEGRFTISRDNAKNTGYLQMNSLAPDDTAVYYCGAGTPLNPGAYIYDWSYDYWGRGTQVTVSSGGGGSGGGGSGGGGSEVQLVESGGGLVQAGGSLSISCAASGGSLSNYVLGWFRQAPGKEREFVAAINWRGDITIGPPNVEGRFTISRDNAKNTGYLQMNSLAPDDTAVYYCGAGTPLNPGAYIYDWSYDYWGRGTQVTVSSGGGGSGGGGSGGGGSEVQLVESGGGLVQAGGSLSISCAASGGSLSNYVLGWFRQAPGKEREFVAAINWRGDITIGPPNVEGRFTISRDNAKNTGYLQMNSLAPDDTAVYYCGAGTPLNPGAYIYDWSYDYWGRGTQVTVSS
sensitivity in in vitro neutralization relative to RSV-B 18537: ~6 fold
